Here are results for 2 molecules from article PMC6678494, “Characterization of the First Bacterial and Thermostable GDP-Mannose 3,5-Epimerase” (International Journal of Molecular Sciences, 2019).

One series concerns the target T1, MfGM35E (Candidatus Methylacidiphilum fumarolicum, UniProt A0ABM9IGG7).
T1 construct: gene MFUM_2356; codon-optimized gene in pET21 (NdeI/XhoI), C-terminal His6-tag kept, E. coli BL21(DE3), Ni-NTA, about 37 kDa
Nature of the series: specific activity with added NAD+, HPAEC-PAD. It is filed as biochemical. The conditions noted are these: 2 mM GDP-Man, 100 mM MOPS pH 7.5, 50 °C; independent of added NAD+ concentration.

Substrate in series [1]: Nc1nc2c(ncn2[C@@H]2O[C@H](COP(=O)(O)OP(=O)(O)O[C@H]3O[C@H](CO)[C@@H](O)[C@H](O)[C@@H]3O)[C@@H](O)[C@H]2O)c(=O)[nH]1
Nature of the series: initial rate of GDP-L-galactose formation, HPAEC-PAD, Michaelis-Menten fit. It is filed as biochemical, Candidatus Methylacidiphilum fumarolicum. As to conditions: 100 mM MOPS pH 7, 60 °C, 20-2000 µM substrate.

Usually Km stands for the substrate concentration at which the rate is half of its maximum. As a reminder, the kcat is the maximal rate divided by the concentration of active sites.

`NC(=O)c1ccc[n+]([C@@H]2O[C@H](COP(=O)(O)OP(=O)(O)OC[C@H]3O[C@@H](n4cnc5c(N)ncnc54)[C@H](O)[C@@H]3O)[C@@H](O)[C@H]2O)c1` [NAD^+]: on MfGM35E, the “% increase in activity” value stood at 65%.

B1: MfGM35E (Candidatus Methylacidiphilum fumarolicum) (protein)
chain: MKKALVAGAGGFIGHHLVNFLKEKGYWVRGVDIKEPEYEKSRSDEFYLLDLRYWGNCLEATKGVDEVYQLAADMGGIGYISGNHAEIAKNNILINTHMLEASYQNGVKRYFYSSSACIYPSYRQQSVDVIPLKEEDAMPADPEEGYGWEKLFAEKLCQYYQEDKGIETRIARFHNVYGPLGTYKGGREKAPAAICRKIALAEDSSEIEVWGDGKQTRSFLYIQDCVEGIYLITQSDYPKPLNLGSEELVTIDQLVEMTAKVANKNIRIRHNLSKPQGVRGRNSDNSKLYKITGWRPKFPLLEGLKLTYPWIAERVARERNMQGCQ
notes: codon-optimized gene in pET21 (NdeI/XhoI), C-terminal His6-tag kept, E. coli BL21(DE3), Ni-NTA, about 37 kDa
As for B1, in series [1], the Km was found to be 98 µM and the kcat came out at 0.2 s⁻¹.
